The values below come from article PMC10276540.

This experiment deals with Ultramarine fluorescent protein. Description: AUC.

Ultramarine fluorescent protein: the stoichiometry N (as a rule, a count of units in the complex or per binding partner) is 2.
